System: MS2 coat protein
Test: apparent KD of MS2 coat protein; designed switch direction (-1 OFF switch, 1 ON switch): -1; higher = weaker reporter binding
Summary of the method: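 SNAP-549-labelled MS2 coat protein was titrated, doubling from 0.7 or 1.5 nM to 3 µM, over designed RNA switches transcribed on Illumina chips by stalled E. coli RNA polymerase. Runs were done without input, with 200 uM small-molecule ligand, or with an oligonucleotide input. Apparent KD is the per-design median over clusters of curve-fitted normalised fluorescence.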

[1] = input ligand: microRNA oligo, concentration not stated
[2] = Eterna round: R95, input ligand: microRNA oligo, concentration not stated
[3] = Eterna round: R95, input ligand: FMN 200 uM
[4] = Eterna round: R95, input ligand: none

## AAGAUACAUGAGGAUCACCCAUGUGAGGAUAUGAGUCAGUCACGGUGACGUGGCUGACUCAGAAGGCACAAAGG [JL-ex1-4.36 salish99 mod] (Eterna round: R97, puzzle: Exclusion 1)
Input ligand: FMN 200 uM
  apparent KD of MS2 coat protein: 176 nM
Input ligand: none
  apparent KD of MS2 coat protein: 110 nM

## CUGAACCCGGUAGGAUAUAUUGUGGGCAGGCGUGGAACGACAUGAGGAUCACCCAUGUAAUUUAGGUAGAAGGGCCGAGAGAUU [Excl-NG2-LRO13] (Eterna round: R96, puzzle: Exclusion NG 2)
Input ligand: FMN 200 uM
  apparent KD of MS2 coat protein: 22.9 nM
[1]
  apparent KD of MS2 coat protein: 21.7 nM
Input ligand: none
  apparent KD of MS2 coat protein: 37.3 nM

## AGAGUGCUGCGAGGAUAUACAUGAGGAUCACCCAUGUUUUCGUGUGAGGCAAAGCCUCACACGAUGUAGAAGGCGCAGUACUCA [Mat - Exclusion NG 2 - Mod of JL - D36] (Eterna round: R96, puzzle: Exclusion NG 2)
Input ligand: FMN 200 uM
  apparent KD of MS2 coat protein: 13.2 nM
[1]
  apparent KD of MS2 coat protein: 9.73 nM
Input ligand: none
  apparent KD of MS2 coat protein: 14.6 nM

## UAAUUAAGUGUGAGGAUAUGCUGGUCCUUGGAUCAGCAGAAGGCACAUGAGGAUCACCCAUGUAAUUUAUUUAU [JL bmx4 3.10] (puzzle: Brourd's mod of Exclusion 4)
[2]
  apparent KD of MS2 coat protein: 78.5 nM

## UUCGUGCAGCUUUGCUGUACGCGUACAUGAGGAUCACCCAUGUAGGAUAUGGUAGGCAAAGCUUACUAGAAGGAUAGAGUGAUC [Mat - Exclusion NG 3 - Mod of JL - D74] (Eterna round: R96, puzzle: Exclusion NG 3)
Input ligand: FMN 200 uM
  apparent KD of MS2 coat protein: 277 nM
[1]
  apparent KD of MS2 coat protein: 92.8 nM
Input ligand: none
  apparent KD of MS2 coat protein: 122 nM

## UAAAACAGAGGAUAUCGCUUGGUAAACAUGAGGAUCACCCAUGUGGUCUCGGUGGAUACCCGAGAAGGCUGAGCGU [Xeraisbece] (Eterna round: R97, puzzle: Exclusion 5)
Input ligand: FMN 200 uM
  apparent KD of MS2 coat protein: 19.5 nM
Input ligand: none
  apparent KD of MS2 coat protein: 19 nM

## UGGGUUCUCCAUGGAAGUAACAUGAGGAUCACCCAUGUAGGGCAAGUUUUUUGCUCGUCAUAGGCCGUGGGUUUGGA [JR_SV3TOV1_Sub019] (puzzle: Sensor v3, turn-off variant 1)
[3]
  apparent KD of MS2 coat protein: 252 nM
[2]
  apparent KD of MS2 coat protein: 248 nM
[4]
  apparent KD of MS2 coat protein: 305 nM

## CCCAGAGCGUAAGGAUAUACAUGAGGAUCACCCAUGUCUACAAUAAUAGUACUAUAUGAAGUCGUGUAGAAGGUACGCGCAGGU [Eternabot solution 46] (Eterna round: R96, puzzle: Exclusion NG 2)
[1]
  apparent KD of MS2 coat protein: 30.7 nM

## GACUGCUGAGGAUAUACAUGAGGAUCACCCAUGUGCUUCAGCAUCGAAAGAUGCAUUGGUAGAAGGUAGUAGUC [LRO-Excl3-06] (puzzle: Exclusion 3)
[2]
  apparent KD of MS2 coat protein: 10.9 nM

## UUUAGUUCAGGAUAUGUAGAUUUUAACAUGAGGAUCACCCAUGUAGAUCCUGAAUUAACUACAGAAGGGAACAUUC [Exclusion 5: 2:c] (puzzle: Exclusion 5)
[2]
  apparent KD of MS2 coat protein: 20.9 nM

## AAGAAACAUGAGGAUCACCCAUGUGAGGAUAUGAUCAAGAAAAGAAAAGAAAGAAGAAUCAGAAGGCACAAAGG [salish99-ex1_r3_044] (puzzle: Exclusion 1)
[3]
  apparent KD of MS2 coat protein: 295 nM
[2]
  apparent KD of MS2 coat protein: 176 nM
[4]
  apparent KD of MS2 coat protein: 342 nM

## CUUGUCCGAGGAUAUAUUUUGUGAUACAUGAGGAUCACCCAUGUUAUAAGAUGGAUAUAAAUAGAAGGCGGACGAG [Mat - Exclusion 5 - JL mod - D69] (puzzle: Exclusion 5)
[3]
  apparent KD of MS2 coat protein: 35.7 nM
[2]
  apparent KD of MS2 coat protein: 44 nM
[4]
  apparent KD of MS2 coat protein: 47 nM

## AAACAGCAAGGAUAUACGGGCAGUGCUUAUCAUAUCAUACAACAUGAGGAUCACCCAUGUAGAAGGUGCAACAA [Ex2 #1] (Eterna round: R97, puzzle: Exclusion 2)
Input ligand: FMN 200 uM
  apparent KD of MS2 coat protein: 108 nM
Input ligand: none
  apparent KD of MS2 coat protein: 39.1 nM

## GAAAACGUAGGAUAUACGAAAAAAAAGGGUAGAAAAAAAACACAUGAGGAUCACCCAUGUAGAAGGACGAAAAG [salish99_ex2_r3_094] (puzzle: Exclusion 2)
[3]
  apparent KD of MS2 coat protein: 66.3 nM
[2]
  apparent KD of MS2 coat protein: 38.9 nM
[4]
  apparent KD of MS2 coat protein: 55.4 nM

## UUUAUGUCAGGAUAUGAGUAGUAGAACAAUAGUACUACUACUCAGAAGGGACAUGAGGAUCACCCAUGUGCCUC [Fiskers Ex 4 Super stable 44 mod 22] (puzzle: Exclusion 4)
[2]
  apparent KD of MS2 coat protein: 33.6 nM

## CCUUGACAUGAGGAUCACCCAUGUGAGGAUAUCCUGCGAGGAUCAAAAGAUCCUCGUGGGAGAAGGCAUAUGAA [Omei Ex1 A7] (Eterna round: R97, puzzle: Exclusion 1)
Input ligand: FMN 200 uM
  apparent KD of MS2 coat protein: 32.6 nM
Input ligand: none
  apparent KD of MS2 coat protein: 16.7 nM

## CUGGUCCGAGGAUAUAUUAUGUGAAACAUGAGGAUCACCCAUGUUAUAUGAUGGAUGUAAAUAGAAGGCGGACUAG [JL-ex5-3.14] (puzzle: Exclusion 5)
[3]
  apparent KD of MS2 coat protein: 27.6 nM
[2]
  apparent KD of MS2 coat protein: 36.3 nM
[4]
  apparent KD of MS2 coat protein: 40.3 nM

## AAGUACCGUCACGAAAGUGAUGGUACAACAAGCAAAUGUACAUGAGGAUCACCCAUGUCCUCAAUUGCUCGUCUUAU [Sensor 3 - 57] (puzzle: Sensor v3, turn-off variant 2)
[3]
  apparent KD of MS2 coat protein: 88.2 nM
[2]
  apparent KD of MS2 coat protein: 176 nM
[4]
  apparent KD of MS2 coat protein: 92.8 nM

## CAAACACUGGUCCAAGCACACAUGAGGAUCACCCAUGUCGCCACAUAGGCGCCGGGAAUUAAGCUUCCGUUCGUCUG [Eternabot (L2) Solution 14] (Eterna round: R97, puzzle: Sensor, turn-off variant 1)
Input ligand: FMN 200 uM
  apparent KD of MS2 coat protein: 113 nM
Input ligand: none
  apparent KD of MS2 coat protein: 150 nM

## GUGAUCUAUCAUGGGAUAAACAUGAGGAUCACCCAUGUAGACAAGUUUUUUGCUCGUCUUAUAAUAAGAUAGAUCAC [Antenna 1 - Jieux - Sensor, turn-off variant 1] (Eterna round: R97, puzzle: Sensor, turn-off variant 1)
Input ligand: FMN 200 uM
  apparent KD of MS2 coat protein: 37.2 nM
Input ligand: none
  apparent KD of MS2 coat protein: 39.4 nM

## ACUAGGCGAGGAUAUACAUGCUUAACGCAGGAAAAGCUGCGACAUGAGGAUCACCCAUGUAGAAGGCGCAAAUA [Xege] (Eterna round: R96, puzzle: Exclusion 2)
Input ligand: FMN 200 uM
  apparent KD of MS2 coat protein: 78.1 nM
[1]
  apparent KD of MS2 coat protein: 14.6 nM
Input ligand: none
  apparent KD of MS2 coat protein: 20 nM

## GGUUGGCGAGGAUAUACAUGAGGAUCACCCAUGUGGUCCUGUGGCUAAAAAAACCUUUGUAGAAGGCGCGGGUC [salish99_ex3_r4_030] (Eterna round: R97, puzzle: Exclusion 3)
Input ligand: FMN 200 uM
  apparent KD of MS2 coat protein: 173 nM
Input ligand: none
  apparent KD of MS2 coat protein: 149 nM

## AAGCUGUCAGGAUAUCGUUAAUUUAGUUGUUUGUAUUAGUUCGAGAAGGGACAUGAGGAUCACCCAUGUAUGAA [Ex4 #41] (Eterna round: R97, puzzle: Exclusion 4)
Input ligand: FMN 200 uM
  apparent KD of MS2 coat protein: 62.7 nM
Input ligand: none
  apparent KD of MS2 coat protein: 31 nM

## UAUGAGCUAGGAUAUGCUUUGGGCUCGCUUUCCUUCGAUAAACUUGAGGAUCACCCAAGUAGAAGGAGCUUGUA [Mod 32 - Jieux - Exclusion 2] (Eterna round: R97, puzzle: Exclusion 2)
Input ligand: FMN 200 uM
  apparent KD of MS2 coat protein: 36.5 nM
Input ligand: none
  apparent KD of MS2 coat protein: 15.8 nM

## AGAACAUCAGGAUAUCCAUGACACUACAUGAGGAUCACCCAUGUGAAUCUCCUCAAGGCGGGAGAAGGGAUGUUUG [Eternabot (L1) Solution 34] (Eterna round: R97, puzzle: Exclusion 5)
Input ligand: FMN 200 uM
  apparent KD of MS2 coat protein: 272 nM
Input ligand: none
  apparent KD of MS2 coat protein: 86.7 nM

## AAGGAGUUAGGAUAUCGAAGAAGAAGAAGAAGAAGAAGAAGCGAGAAGGAACAUGAGGAUCACCCAUGUAAGAA [JR_Exclu4_Sub028] (puzzle: Exclusion 4)
[3]
  apparent KD of MS2 coat protein: 32.5 nM
[2]
  apparent KD of MS2 coat protein: 50.5 nM
[4]
  apparent KD of MS2 coat protein: 41.5 nM

Reference: the supplement of paper PMC9170038
